The target in this assay is S2H14 (variable region fused with the constant region of IgG1). Description: SPR.

Take “SARS-CoV-2 receptor binding domain (RBD), His-tagged (from UniProt P0DTC2 319-541) (domain or fragment)”: the Kd is 4.12 nM.

The values above are taken from article PMC8142884.
